{"source": "patent US10654893B2", "about": "“Self-assembling peptide compositions” (3-D MATRIX, LTD., priority 2014, dated 2020)", "key": {"[1]": {"test_system": "C57 BL/6 Mouse Mesenchymal Stem Cells (mMSCs)", "test": "Cell viability (cytotoxicity) assay", "format": "cell-based", "protocol": "A cell viability (cytotoxicity) assay was performed to measure the viability of C57 BL/6 Mouse Mesenchymal Stem Cells (mMSCs) with IEIK13 (SEQ ID NO:3), KLD12 (SEQ ID NO:2) and RADA16 (SEQ ID NO:1) compositions as described herein. mMSCs are a frequently used cell line in hydrogel tissue culture systems. […] The final concentration of sucrose was 10%. Cells were washed and re-suspended in 10% sucrose to a final concentration of 5 million cells/ml. Cells were centrifuged and the supernatant was removed. The cells were re-suspended in peptide compositions with 10% sucrose. The protocol was then followed for plating drop cultures and subsequent isolation as described in the PuraMatrix® Guidelines for Use (BD/Corning website). Results are shown in FIGS. 14-16 for RADA16 (SEQ ID NO:1), IEIK13 (SEQ ID NO:3), and KLD12 (SEQ ID NO:2), respectively."}, "[2]": {"test": "pH of reference peptide compositions in water", "format": "physicochemical", "details": "reference composition in water", "from_the_text": "Table 2, below, presents pH concentrations observed for reference compositions in which the indicated peptide is solubilized in water at the indicated concentration."}, "[3]": {"test": "Mixing of RADA16 with DMEM and centrifugation", "format": "physicochemical", "protocol": "When the mixture was centrifuged at 2500 rpm for 5 min, phase separation of cloudy RADA16 (SEQ ID NO:1) precipitated from the mixture. In this case, the peptide assemblies (i.e. initially were formed via hydrophobic interactions) were likely broken down during the mixing process. Attractive charge-charge interactions were dominant over hydrophobic interactions, which induce formation of random intra- and inter-molecular aggregates. The phase separation is illustrated in FIG. 7."}, "[4]": {"test": "Rheological properties before and after DMEM treatment", "format": "physicochemical", "protocol": "Effects of Dulbecco's modified Eagle's medium (DMEM) (pH 7.4) on rheological properties of IEIK13 (SEQ ID NO:3), KLD12 (SEQ ID NO:2), and RADA16 (SEQ ID NO:1) compositions were evaluated using a rheometer (AR500, TA Instruments) with 40 mm plates. DMEM is a cell culture medium that contains 6.4 g/L of NaCl, 3.4 g/L NaHCO3 (sodium bicarbonate), minor amounts of other salts, various amino acids, and 4.5 g/L of glucose. The pH of DMEM is 7.2±0.2 and the osmolality is 335±30 mOsm/Kg H2O. DMEM is close to human physiological fluids, for example, blood.\nBefore being mixed with the DMEM solution, 1% peptide compositions were kept in 4° C. for at least 48 hours. To perform experiments, 1 mL of peptide composition was gently pipetted and placed on the plate of the rheometer. 2 mL of the DMEM solution was gently added around the peptide composition. The peptide composition was treated with the DMEM for two minutes, then medium was removed, and the plates were placed at a measuring geometry gap at around 450 μm. Measurements were performed at 37° C. after 2 min of relaxation. Frequency tests were performed from 1 rad/s to 100 rad/s at 1 Pa of oscillation stress.\nUsing a DHR-1 rheometer (TA Instruments), rheological properties of peptide compositions at selected concentrations were measured before and after the DMEM treatment. Frequency sweep tests were performed from 1 rad/sec to 10 rad/sec at 1 Pa and the storage moduli in the graphs were at 1 rad/sec. […] Results are shown in FIGS. 22A and 22B for RADA16 (SEQ ID NO:1) and FIGS. 23A and 23B for IEIK13 (SEQ ID NO:3), respectively.\nUsing a DHR-1 rheometer (TA Instruments), rheological properties of peptide compositions at selected ion strengths were evaluated 10 mins after the DMEM treatment. Frequency sweep tests were performed from 1 rad/sec to 10 rad/sec at 1 Pa and the storage modulus at 1 rad/sec was selected for data. […] At 0.9 M or higher ionic strengths of NaCl, RADA16 (SEQ ID NO:1) compositions became cloudy."}, "[5]": {"test": "pH adjustment with 0.1 N NaOH, pH and visual observation", "format": "physicochemical", "details": "for Appearance of composition: 2.5%", "protocol": "In this Example, pH levels of peptide compositions was adjusted, for example, by addition of 0.1 N NaOH to 2 mL of a 2.5% peptide composition. pH and appearance of the adjusted compositions were observed. An acidic salt was added if the pH level was higher than the desired level.\nWith certain compositions, when pH levels of peptide compositions were higher than 3.5 (RADA16 (SEQ ID NO:1) and KLD12 (SEQ ID NO:2)) or 3.7 (IEIK13 (SEQ ID NO:3)), the peptide compositions began phase separation (i.e. becoming cloudy). In some embodiments, provided peptide compositions have a pH within the range of about 3.0 to about 3.7 (particularly for IEIK13 (SEQ ID NO:3)), or about 3.0 to about 3.5 (particularly for RADA16 (SEQ ID NO:1) and/or KLD12 (SEQ ID NO:2))."}}, "data": [{"substance": "Arg-Ala-Asp-Ala-Arg-Ala-Asp-Ala-Arg-Ala-Asp-Ala-Arg-Ala-Asp-Ala [RADA16]", "values": [{"measurement": "Cell viability at 0.5% versus 0.25%", "setting": "[1]", "result": "significantly higher than that at 0.25%"}, {"measurement": "pH", "setting": "[2]; Concentration 0.5%", "result": 2.7}, {"measurement": "pH", "setting": "[2]; Concentration 1.0%", "result": 2.5}, {"measurement": "pH", "setting": "[2]; Concentration 1.5%", "result": 2.5}, {"measurement": "pH", "setting": "[2]; Concentration 2.0%", "result": 2.5}, {"measurement": "pH", "setting": "[2]; Concentration 2.5%", "result": 2.5}, {"measurement": "Appearance after mixing with DMEM", "setting": "[3]; 0.5 mL of DMEM mixed with 0.5 mL of 2% RADA16", "result": "cloudy and runny emulsions"}, {"measurement": "Phase behaviour after centrifugation of the DMEM mixture", "setting": "[3]; centrifuged at 2500 rpm for 5 min", "result": "precipitated"}, {"measurement": "Appearance of composition", "setting": "[4]; 0.9 M or higher ionic strengths of NaCl", "result": "became cloudy"}, {"measurement": "Rheological properties as a function of ionic strength after DMEM treatment", "setting": "[4]; 10 mins after DMEM treatment, NaCl, decreased with 0.7 M or higher", "result": "increased with ionic strength adjustment up to 0.7 M"}, {"measurement": "Change of rheological properties with DMEM treatment", "setting": "[4]; selected NaCl ionic strengths, RADA16 statement follows 0.9 M or higher NaCl (no gelation)", "result": "did not change with the DMEM treatment"}, {"measurement": "Rheological properties with DMEM treatment and/or pH elevation", "setting": "[4]; selected concentrations, storage moduli at 1 rad/sec, 1 Pa", "result": "increased with the DMEM treatment and/or pH elevation"}, {"measurement": "Observation", "setting": "[5]; 0.1N NaOH 0 μL/mL, Conc. 2.5%, pH 2.2 (RADA16), 1.8 (IEIK13), 2.1 (KLD12)", "result": "Clear, thick gel"}, {"measurement": "Observation", "setting": "[5]; 0.1N NaOH 50 μL/mL, Conc. 2.38%, pH 2.3 (RADA16), 2.1 (IEIK13), 2.4 (KLD12)", "result": "Clear, thick gel"}, {"measurement": "Observation", "setting": "[5]; 0.1N NaOH 100 μL/mL, Conc. 2.27%, pH 2.4 (RADA16), 2.2 (IEIK13), 2.6 (KLD12)", "result": "Clear, thick gel"}, {"measurement": "Observation", "setting": "[5]; 0.1N NaOH 150 μL/mL, Conc. 2.17%, pH 2.7 (RADA16), 2.7 (IEIK13), 2.9 (KLD12)", "result": "Clear, thick, stiffer gel"}, {"measurement": "Observation", "setting": "[5]; 0.1N NaOH 200 μL/mL, Conc. 2.08%, pH 2.9 (RADA16), 3.0 (IEIK13), 3.3 (KLD12)", "result": "Clear, thick, stiffer gel"}, {"measurement": "Observation", "setting": "[5]; 0.1N NaOH 250 μL/mL, Conc. 2.0%, pH 3.2 (RADA16), 3.3 (IEIK13), 4.0 (KLD12)", "result": "Clear, thick, stiffer gel"}, {"measurement": "Observation", "setting": "[5]; 0.1N NaOH 275 μL/mL, Conc. 1.96%, pH 3.4 (RADA16), 3.7 (IEIK13)", "result": "Clear, thick, stiffer gel"}, {"measurement": "Observation", "setting": "[5]; 0.1N NaOH 300 μL/mL, Conc. 1.92%, pH 3.6 (RADA16), 4.0 (IEIK13), 4.7 (KLD12)", "result": "Slightly cloudy, brittle gel"}, {"measurement": "Observation", "setting": "[5]; 0.1N NaOH 350 μL/mL, Conc. 1.85%, pH 4.5 (RADA16), 4.5 (IEIK13), 5.2 (KLD12)", "result": "Cloudy, phase-separated"}, {"measurement": "Peptide composition pH", "setting": "[5]; 0.1N NaOH added in 2.5% composition 0 μL/mL, Conc. 2.5%", "result": 2.2}, {"measurement": "Peptide composition pH", "setting": "[5]; 0.1N NaOH added in 2.5% composition 50 μL/mL, Conc. 2.38%", "result": 2.3}, {"measurement": "Peptide composition pH", "setting": "[5]; 0.1N NaOH added in 2.5% composition 100 μL/mL, Conc. 2.27%", "result": 2.4}, {"measurement": "Peptide composition pH", "setting": "[5]; 0.1N NaOH added in 2.5% composition 150 μL/mL, Conc. 2.17%", "result": 2.7}, {"measurement": "Peptide composition pH", "setting": "[5]; 0.1N NaOH added in 2.5% composition 200 μL/mL, Conc. 2.08%", "result": 2.9}, {"measurement": "Peptide composition pH", "setting": "[5]; 0.1N NaOH added in 2.5% composition 250 μL/mL, Conc. 2.0%", "result": 3.2}, {"measurement": "Peptide composition pH", "setting": "[5]; 0.1N NaOH added in 2.5% composition 275 μL/mL, Conc. 1.96%", "result": 3.4}, {"measurement": "Peptide composition pH", "setting": "[5]; 0.1N NaOH added in 2.5% composition 300 μL/mL, Conc. 1.92%", "result": 3.6}, {"measurement": "Peptide composition pH", "setting": "[5]; 0.1N NaOH added in 2.5% composition 350 μL/mL, Conc. 1.85%", "result": 4.5}, {"measurement": "Appearance of composition", "setting": "[5]; pH about 3.5 (FIG. 12)", "result": "clear"}, {"measurement": "Appearance of composition", "setting": "[5]; pH=3.6 (FIG. 12)", "result": "slightly cloudy"}, {"measurement": "Appearance of composition", "setting": "[5]; pH=4.0 (FIG. 12)", "result": "precipitated"}, {"measurement": "Observation", "setting": "[5]; pH 7.0, NaOH volume and conc. not given", "result": "Cloudy, phase-separated"}]}]}
